The series is described as follows: Pharmacokinetics of the IL-7Rαγc IgG2-Fc fusion protein in non-human primates (serum level quantified by TF-1-7Rα STAT5 phosphorylation bioassay). The class given is in vivo. Particulars: single dose of 1 mg/kg. As for the experimental part: A pharmacokinetic study of an IL-7Rαγc IgG2-Fc fusion protein was performed in non-human primates. The IL-7Rαγc IgG2-Fc fusion having SEQ ID NO: 45 was administered intravenously (IV), subcutaneously (SC), or intramuscularly (IM) with a single dose of 1 mg/kg into each non-human primate (n=10). Blood samples were collected at times post-dose into serum separator vials. Samples were centrifuged at 10,000× g for 5 min at 4° C. followed by transferring the serum to a new tube. Samples were frozen and stored at −80° C. prior to testing.
The TF-1-7Rα STAT5 phosphorylation bioassay was used to quantity the amount of the IL-7Rαγc IgG2-Fc fusion in each of the serum samples. Three-fold serial dilutions of each serum sample or a compound reference standard in starvation media were added to the cells and incubated for 30 mins with the cells. Cells extracts were prepared and the quantity of phosphorylated STAT5 was determined as described in Example 3. The IL-7Rαγc IgG2-Fc fusion protein concentration in each serum sample was calculated using a standard curve generated from the reference standard.

B1: hu-IgG2-Fc-(GS)10GG-IL-7Raγc (protein)
chain: ERKSSVECPPCPAPPVAGPSVFLFPPKPKDTLMISRTPEVTCVVVDVSHEDPEVQFNWYVDGVEVHNAKTKPREEQFNSTFRVVSVLTVVHQDWLNGKEYKCKVSNKGLPAPIEKTISKTKGQPREPQVYTLPPSREEMTKNQVSLTCLVKGFYPSDIAVEWESNGQPENNYKTTPPMLDSDGSFFLYSKLTVDKSRWQQGNVFSCSVMHEALHNHYTQKSLSLSPGAGSGSGSGSGSGSGSGSGSGSGGGWGIPWCTLDPGSLQCAWLGKHGGGGSGGVVCQDWEGVELCWQGG
notes: IL-7R agonist
With B1, under “intramuscular vs intravenous”, the “bioavailability % F for IM administration” value turned out to be 117%. Moreover, the “bioavailability % F for SC administration” value (subcutaneous vs intravenous) stood at 112%.
